Experiment [1] has as its target human MCP-1 (human) (UniProt P13500). The experiment in a line: inhibition of 125I-MCP-1 binding to THP-1 cells (CCR2).
For experiment [2] the target is unchanged. The experiment in a line: BioVeris (IGEN) solution equilibrium titration.
The target is the same in experiment [3]. The experiment in a line: cell-based or functional assay.
A further experiment concerns the target T1, human MCP-4 (human, UniProt Q99616 24-98).
T1 construct: also called CCL13
The experiment in a line: Biacore, captured IgG. Here is the method:
(§1) Specificity of Optimized Antibodies in Biacore Antibody Capture Mode (CNTO). Specificity evaluation was performed with selected IgGs. In Biacore 100 nM human MCP-1, human MCP-2, 3, 4 and human Eotaxin 1, 2 and 3 were added to captured optimized antibodies.

The target of a further experiment is T2, human Eotaxin-3 (human, UniProt Q9Y258 24-94).
T2 sequence (looked up): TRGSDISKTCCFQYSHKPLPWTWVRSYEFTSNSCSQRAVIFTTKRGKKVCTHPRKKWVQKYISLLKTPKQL
The experiment in a line: Biacore, captured IgG. Here is the method:
as §1

The target of experiment [4] is T3, human MCP-2 (human, UniProt P80075 24-99).
T3 construct: also called CCL8
T3 sequence (looked up): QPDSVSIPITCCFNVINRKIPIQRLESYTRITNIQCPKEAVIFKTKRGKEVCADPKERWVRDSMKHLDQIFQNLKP
The experiment in a line: Biacore, captured IgG. On the procedure:
as §1
(Surface plasmon resonance follows binding to a sensor surface in real time, without labels.)

In the next experiment the target is T4, human MCP-3 (human, UniProt P80098 24-99).
T4 construct: also called CCL7
The experiment in a line: Biacore, captured IgG. On the procedure:
as §1

For the next experiment, the target named is T5, human Eotaxin-2 (human, UniProt O00175 27-104, limits assumed).
T5 sequence (looked up): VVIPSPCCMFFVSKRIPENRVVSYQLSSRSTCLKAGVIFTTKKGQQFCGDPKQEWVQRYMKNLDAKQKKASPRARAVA
The experiment in a line: Biacore, captured IgG. On the procedure:
as §1

In a further experiment the target is T6, human Eotaxin (human, UniProt P51671 24-97).
T6 construct: also called Eotaxin-1; Eotaxin 1
The experiment in a line: BioVeris solution equilibrium titration. On the procedure:
Solution Equilibrium Titration (SET) Method for KD Determination and Cross-Reactivity Studies Using BioVeris. Affinity determination in solution was basically performed as described in the literature (Friguet et al., 1985). In order to improve the sensitivity and accuracy of the SET method, it was transferred from classical ELISA to ECL based BioVeris technology (Haenel et al., 2005, accepted for publication in Analytical Biochemistry). 1 mg/ml goat-anti-human (Fab)₂ or goat-anti-mouse IgG, Fc fragment specific antibodies (Jackson Immuno Research) were labelled with BV-tag™ NHS-Ester (Bioveris Europe, Witney, Oxfordshire, UK) according to manufacturer's instructions. The experiments were carried out in polypropylene microtiter plates and PBS pH 7.4 with 0.5% BSA and 0.02% Tween 20 as assay buffer. Unlabeled antigen was diluted in 4ⁿ series: For human and cyno MCP-1 a concentration range of 10 pM to 40 nM and for cross-reactivity controls (Eotaxin and MCP-2) a concentration range of 40 pM to 160 nM was chosen. Wells without antigen were used to determine Smax values. After addition of 100 pM Fab or IgG (final concentration in 75 μL final volume), the mixture was incubated for 2 hours at RT. Subsequently a mixture of 25 μl Dynabeads (0.4 mg/ml M-280 Streptavidin, DYNAL, Hamburg), coated with 0.25 μg/ml biotinylated MCP-1 (K69) and BV-tag labeled detection antibody in a final dilution of 1:4000 for anti-human Fab or 1:2000 for anti-mouse IgG were added per well. After incubation for 30 min on an Eppendorf shaker (700 rpm) at RT, electrochemiluminescence signals were detected using a M-384 SERIES® Workstation (Bioveris Europe) Data were evaluated with Origin 5.0 (Microcal) software applying customized fitting models (for Fab: Haenel et al., 2005, accepted for publication in Analytical Biochemistry; for IgG: according to Piehler et al., 1997).
Specificity Testing Using BioVeris. Beside the affinity also the specificity, especially the cross-reactivity to Eotaxin and MCP-2, was analyzed in solution equilibrium titration (SET) using BioVeris. No cross-reactivity to human MCP-2 was detectable for any of the selected 16 Fabs and 15 IgGs tested (one of the 16 selected IgGs was not available). As human MCP-1, human MCP-2 binds mainly to the CCR2 receptor, while human Eotaxin predominantly binds to the CCR3 receptor.

The target in experiment [5] is T7, human MCP-1 (human, UniProt P13500 24-99). The experiment in a line: cell-based or functional assay.
For experiment [6], the target named is T7, human MCP-1. The experiment in a line: inhibition of 125I-MCP-1 binding to THP-1 cells (CCR2).
The target of experiment [7] is T7, human MCP-1. The experiment in a line: Biacore, Fab.
In the next experiment the target is T8, cynomolgus monkey MCP-1 (cynomolgus monkey, UniProt P61274 24-99).
T8 construct: also called cyno MCP-1; cyno CCL-2
The experiment in a line: Biacore, Fab.

The target in experiment [8] is T3, human MCP-2. The experiment in a line: Biacore, captured Fab. On the procedure: For the specificity analysis of Fabs, surface plasmone resonance was used (Biacore 3000, Uppsala, Sweden) using the capture assay was used. Fabs were captured and the various proteins (MCP-2, -3, -4 and Eotaxin-1, -2 and -3) were used as analytes. CM5 chips (Biacore, Sweden) were coated with 6500-8000 RU anti-F(ab)₂ (Dianova, Affipure F(ab)₂ fragment goat anti-human IgG, F(ab)₂ fragment specific; 10 mM acetate buffer, pH 4.5) on all 4 flow cells, using standard EDC-NHS amine coupling chemistry. The flow cells 2-4 were captured with specific anti-MCP-1 Fabs (20 μl of 500 nM Fab at a flow rate of […], resulted capture density 300-400RU). After capturing of Fabs, the chemokines were injected (20 μl, flow rate 20 μl/min, PBS pH 7.4) at a concentration of 100 nM. Chemokines were stored in small aliquots and only freshly thawed material with maximum 1 freeze thaw cycle was used for the measurements. To avoid a combination of off rates aroused by the off rate of MCP-1, Fab specific interaction and the anti-Fab/Fab interaction, buffer was injected, to determine the dissociation of anti-Fab/Fab interaction. The achieved buffer sensorgram was subtracted from the specific one. The response units were normalized to the amount of capture antibody onto the surface.

Usually IC50 stands for the concentration at which inhibition is half-maximal. In general, Kd refers to the free concentration of one partner at which half of the binding sites on the other are occupied at equilibrium, for simple one-to-one binding.

human MCP-1 (human), sequence (P13500 24-99): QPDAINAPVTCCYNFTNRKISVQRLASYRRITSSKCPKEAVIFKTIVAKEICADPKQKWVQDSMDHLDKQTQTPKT
T7 sequence (P13500 24-99): as above
T6 sequence (P51671 24-97 limits assumed): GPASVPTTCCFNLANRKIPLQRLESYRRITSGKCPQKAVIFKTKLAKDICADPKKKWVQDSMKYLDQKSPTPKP
T1 sequence (Q99616 24-98 limits assumed): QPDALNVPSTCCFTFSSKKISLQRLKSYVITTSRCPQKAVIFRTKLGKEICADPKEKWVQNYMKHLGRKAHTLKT
T4 sequence (P80098 24-99 limits assumed): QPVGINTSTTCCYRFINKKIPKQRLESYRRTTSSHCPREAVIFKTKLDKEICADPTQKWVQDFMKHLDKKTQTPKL
T8 sequence (P61274 24-99 limits assumed): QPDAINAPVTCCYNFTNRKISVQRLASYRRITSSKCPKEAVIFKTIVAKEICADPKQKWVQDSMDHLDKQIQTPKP

B1: C775 Fab (Fab, from another filing, V domains shown)
VH: QVQLKQSGAELVRPGASVKLSCKASGYTFTDYYINWVKQRPGQGLEWIARIYPGTGNTYYNENFKGKATLTAEKSSSTAYMQLSSLTSEDSAVYFCARSGSTVVGNYYGMDYWGQGTSVTVSS
VL: SIVMTQTPKFLLVSAGDRVSITCKASQSVSNDVAWYQQKPGQSPKLLIYYASNRYTGVPDRFTGSGYGTDFTFTISTVQAEDLAVYFCQQDYSSPWTFGGGTKLEIKR
Molecule B1 came in with an IC50 with human MCP-1 (human) [1] of 35.6 nM. In addition, in the experiment with human MCP-1 (human) [2], the Kd was 65 nM. The Inhibition of Ca2+ Mobilization IC50 with human MCP-1 (human) [3] was 71.5 nM.

B2: C775 IgG (antibody, from another filing, V domains shown)
VH: QVQLKQSGAELVRPGASVKLSCKASGYTFTDYYINWVKQRPGQGLEWIARIYPGTGNTYYNENFKGKATLTAEKSSSTAYMQLSSLTSEDSAVYFCARSGSTVVGNYYGMDYWGQGTSVTVSS
VL: SIVMTQTPKFLLVSAGDRVSITCKASQSVSNDVAWYQQKPGQSPKLLIYYASNRYTGVPDRFTGSGYGTDFTFTISTVQAEDLAVYFCQQDYSSPWTFGGGTKLEIKR
Turning to B2, in the experiment with human MCP-1 (human) [1], the concentration for half-maximal inhibition (IC50) was 25.6 nM. The molecule further yielded an Inhibition of Ca2+ Mobilization IC50 in the experiment with human MCP-1 (human) [3] of 62.3 nM.

B3: MOR03747 IgG1 (antibody, V domains shown)
VH: QVQLVESGGGLVQPGGSLRLSCAASGFTFRSYGMSWVRQAPGKGLEWVSNIRSDGSYTYYADSVKGRFTISRDNSKNTLYLQMNSLRAEDTAVYYCARFEFTPWTYFDFWGQGTLVTVSS
VL: DIELTQPPSVSVAPGQTARISCSGDNLGKKYVYWYQQKPGQAPVLVIYDDDNRPSGIPERFSGSNSGNTATLTISGTQAEDEADYYCQSYDRFSSTGFGGGTKLTVL
notes: Human IgG1 lambda
In the case of B3, the binding result is listed as “no binding (tested: 100 nM)” in the experiment with human MCP-4; “no binding (tested: 100 nM)” with human Eotaxin-3; “no binding (tested: 100 nM)” with human MCP-2 [4]; “no binding (tested: 100 nM)” with human MCP-3; “no binding (tested: 100 nM)” in the experiment with human Eotaxin-2; “no binding (tested: 40 pM to 160 nM)” in the experiment with human Eotaxin.

B4: MOR03747 Fab (Fab, V domains shown)
VH: QVQLVESGGGLVQPGGSLRLSCAASGFTFRSYGMSWVRQAPGKGLEWVSNIRSDGSYTYYADSVKGRFTISRDNSKNTLYLQMNSLRAEDTAVYYCARFEFTPWTYFDFWGQGTLVTVSS
VL: DIELTQPPSVSVAPGQTARISCSGDNLGKKYVYWYQQKPGQAPVLVIYDDDNRPSGIPERFSGSNSGNTATLTISGTQAEDEADYYCQSYDRFSSTGFGGGTKLTVL
notes: HuCAL Fab with C-terminal FLAG and 6xHis tags
In the case of B4, the binding result with human Eotaxin was “no binding (tested: 40 pM to 160 nM)”.

B5: MOR03548 Fab (Fab, V domains shown)
VH: QVQLVESGGGLVQPGGSLRLSCAASGFTFRSYGMSWVRQAPGKGLEWVSNIRSDGSYTYYADSVKGRFTISRDNSKNTLYLQMNSLRAEDTAVYYCARFEFTPWTYFDFWGQGTLVTVSS
VL: DIELTQPPSVSVAPGQTARISCSGDNLGKKYVYWYQQKPGQAPVLVIYDDDNRPSGIPERFSGSNSGNTATLTISGTQAEDEADYYCQSYTAQSSASFGGGTKLTVL
notes: Parental HuCAL GOLD Fab with C-terminal FLAG and 6xHis tags
As for B5, the “Ca2+ mobilization IC50” value in the experiment with human MCP-1 [5] was determined as 124 nM. In addition, in the experiment with human MCP-1 [6], the IC50 turned out to be 11 nM. Also, the Kd in the experiment with human MCP-1 [7] amounted to 42 nM; with cynomolgus monkey MCP-1 it was 54 nM. Besides, the binding result with human MCP-2 [8] is “no binding (tested: 100 nM)”.

B6: MOR03744 Fab (Fab, V domains shown)
VH: QVQLVESGGGLVQPGGSLRLSCAASGFTFRSYGMSWVRQAPGKGLEWVSNIRSDGSYTYYADSVKGRFTISRDNSKNTLYLQMNSLRAEDTAVYYCARFEFTPWTYFDFWGQGTLVTVSS
VL: DIELTQPPSVSVAPGQTARISCSGDNLGKKYVYWYQQKPGQAPVLVIYDDDNRPSGIPERFSGSNSGNTATLTISGTQAEDEADYYCQTYDRFSSTAFGGGTKLTVL
notes: as for B4
With B6, the binding result with human Eotaxin is given as “no binding (tested: 40 pM to 160 nM)”.

B7: MOR03744 IgG1 (antibody, V domains shown)
VH: QVQLVESGGGLVQPGGSLRLSCAASGFTFRSYGMSWVRQAPGKGLEWVSNIRSDGSYTYYADSVKGRFTISRDNSKNTLYLQMNSLRAEDTAVYYCARFEFTPWTYFDFWGQGTLVTVSS
VL: DIELTQPPSVSVAPGQTARISCSGDNLGKKYVYWYQQKPGQAPVLVIYDDDNRPSGIPERFSGSNSGNTATLTISGTQAEDEADYYCQTYDRFSSTAFGGGTKLTVL
notes: Human IgG1 lambda
As for B7, the binding result with human MCP-4 is listed as “no binding (tested: 100 nM)”; with human Eotaxin-3, “no binding (tested: 100 nM)”; in the experiment with human MCP-2 [4], “no binding (tested: 100 nM)”; with human MCP-3 it was “no binding (tested: 100 nM)”; in the experiment with human Eotaxin-2, “no binding (tested: 100 nM)”; in the experiment with human Eotaxin, “no binding (tested: 40 pM to 160 nM)”.
